Reference: patent publication US20220112288A1 (published 2022)
Residue numbers refer to the chain shown, from its start. One block for each binder: values may come before it.

Tests used:
[1] = target: T1, human CD4 on cells (SKW3 cells; human PBMCs) (human, UniProt P01730 26-458); experiment: FACS binning on SKW3 cells pre-incubated with supernatant; competitor OKT4a read with anti-human A647 secondary; background 5000, max binding 35000
T1 construct: whole, on cells; SKW3 CD4 knockout cells served as the negative cell line; also called hCD4

[2] = target: T1, human CD4 on cells (SKW3 cells; human …); experiment: FACS confirmation, supernatant on human PBMCs, anti-mouse Fc 647, CD4+ percent of viable cells
[3] = target: T1, human CD4 on cells (SKW3 cells; human …); experiment: FACS binning on SKW3 cells pre-incubated with supernatant; competitor OKT4-A488, its signal read; background 2163, max binding 8200
[4] = target: T1, human CD4 on cells (SKW3 cells; human …); experiment: FACS confirmation, supernatant on human PBMCs, anti-mouse Fc 647, CD4+ gate
huCD4-HIS = target: T2, huCD4-HIS (human, UniProt P01730 26-390, limits assumed); experiment: ELISA binning, competitor Ibalizumab; 100 ng/mL huCD4-HIS, anti-HIS HRP detection; background 45, max binding 3000000
T2 construct: the ELISA binning is not described in the text of this stretch

[5] = target: T1, human CD4 on cells (SKW3 cells; human …); experiment: FACS binning on SKW3 cells pre-incubated with supernatant; competitor RPA-T4-PE-Dazzle 594, its signal read; background 783, max binding 15000
[6] = target: T1, human CD4 on cells (SKW3 cells; human …); experiment: FACS primary screen, non-clonal hybridoma supernatant, SKW3 vs SKW3 CD4 knockout cells, anti-human kappa FITC
[7] = target: T1, human CD4 on cells (SKW3 cells; human …); experiment: FACS confirmation, supernatant on SKW3 WT cells, anti-human kappa FITC; background gMFI 2500
[8] = target: T1, human CD4 on cells (SKW3 cells; human …); experiment: FACS confirmation, supernatant on SKW3 WT cells, anti-mouse Fc 647; background gMFI 3300
[9] = target: T1, human CD4 on cells (SKW3 cells; human …); experiment: FACS primary screen, non-clonal hybridoma supernatant, SKW3 vs SKW3 CD4 knockout cells, anti-mouse Fc A647
[10] = target: T3, human CD4 on cells (SKW3 cells; human PBMCs) (human, UniProt P01730 26-458); experiment: FACS confirmation, supernatant on SKW3 cells; background gMFI 2500
T3 construct: whole, on cells; SKW3 CD4 knockout cells served as the negative cell line in the primary screen; also called hCD4; huCD4

[11] = target: T3, human CD4 on cells (SKW3 cells; human …); experiment: FACS confirmation, supernatant on SKW3 cells; background gMFI 3300
[12] = target: T3, human CD4 on cells (SKW3 cells; human …); experiment: FACS confirmation, supernatant on human PBMCs;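 note: flow cytometry with hybridoma supernatants incubated on human PBMCs for 30 min at 4 °C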
[13] = target: T3, human CD4 on cells (SKW3 cells; human …); experiment: FACS primary screen, hybridoma supernatant, SKW3 vs SKW3 CD4 KO cells;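 note: flow cytometry on mixed SKW3 and dye-labeled SKW3 CD4 knockout cells after 30 min at 4 °C with supernatant, ratio of binding signal on parental versus knockout cells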
[14] = target: T4, human CD8 on human pan T cells (CD4-negative population) (human, UniProt P01732 22-235; P10966 22-210); experiment: flow cytometry, 20 nM antibody on human pan T cells, A647 anti-human IgG Fc; geomean ratio in CD4-negative population
T4 construct: whole, on cells; Endogenous CD8 on primary human pan T cells, read in the CD4-negative gate; also called CD8α/β
T4 sequence (P01732 22-235, chain 1 of 2): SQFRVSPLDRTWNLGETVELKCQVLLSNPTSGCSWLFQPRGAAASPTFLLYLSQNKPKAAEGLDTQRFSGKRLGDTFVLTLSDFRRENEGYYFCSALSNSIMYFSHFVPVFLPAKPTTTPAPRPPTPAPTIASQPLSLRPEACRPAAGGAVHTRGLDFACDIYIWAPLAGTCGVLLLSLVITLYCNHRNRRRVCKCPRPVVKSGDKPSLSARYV
T4 sequence (P10966 22-210, chain 2 of 2): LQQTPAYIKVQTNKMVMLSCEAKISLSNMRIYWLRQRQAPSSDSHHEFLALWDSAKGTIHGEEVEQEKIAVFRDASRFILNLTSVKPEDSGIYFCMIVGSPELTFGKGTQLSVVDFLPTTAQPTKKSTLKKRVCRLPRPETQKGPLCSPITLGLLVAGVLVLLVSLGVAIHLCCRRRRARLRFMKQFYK

B2: 75110_07B16A (antibody, IgG1, V domains shown)
VH: QVQLQQWGAGLLKPSETLSLTCAVYGGSFSGYYWSWIRQSPGKGLEWIGEINQSGSTNYNPSLKSRVTISVDTSKDQFSLKLSSVTAADTAVYYCARVINWFDSWGQGSLVTVSS
VL: DIQMTQSPSSVSASVGDRVTITCRASQGISSWLAWYQQKPGKAPKLLIYDASSFQSGVPSRFSGSGSGTDFTLTISSLQTDDFATYYCQQANSFPYTFGQGTKLEIK
notes: Tested as non-clonal AlivaMab Mouse Kappa hybridoma supernatant: human variable domains and human kappa, mouse Fc
SKW3 FACS Binning OKT4a anti-hu A647 Secondary [1]: 5320
PBMCs, anti-mFc 647 CD4+ Percent Bound of Viable [2]: 29%
SKW3 FACS Binning OKT4 A488 [3]: 9280
PBMCs, anti-mFc 647 CD4+ gate - RL1 Binding [4]: 274000
Ibalizumab ELISA binning signal (huCD4-HIS): 1.31e+06
SKW3 FACS Binning RPA-T4-PE-Dazzle 594 [5]: 20600
SKW3 WT vs KO anti-hKappa-FITC [6]: 3 fold
SKW3 WT anti-hu Kappa FITC, gMFI [7]: 7220 gMFI
SKW3 WT anti-mFc 647, gMFI [8]: 30800 gMFI
SKW3 WT vs KO anti-mFc-647 [9]: 11.4 fold

B3: 75110_06E14A (antibody, V domains shown)
VH: QVQLQESGPGLVKPSETLSLTCTVSGGSISNYFWSWIRQPAGKGLEWIGRIYSSGNTNYNPSLKSRVTMSVDTSKNQFSLKLSSVTAADTAVYYCARDREDYYYYGMDVWGQGTTVTVSS
VL: DIQMTQSPSSLSASVGDRVTITCQASQDISNYLNWYQQKPGKAPKLLIYGASILETGVPSRFTGSGSGTDFTFTISSLQPEDIATYYCQQYDSLPITFGQGTRLEIK
notes: Tested as non-clonal AlivaMab Mouse Kappa hybridoma supernatant (detected with anti-mouse Fc gamma and anti-human kappa)
gMFI on SKW3 WT, anti-hu Kappa FITC [10]: 8920 gMFI
gMFI on SKW3 WT, anti-mFc 647 [11]: 33800 gMFI
PBMCs CD4+ gate RL1 binding, anti-mFc 647 [12]: 285000
PBMCs CD4+ percent bound of viable [12]: 30%
SKW3 WT vs KO ratio, anti-hKappa-FITC [13]: 3
SKW3 WT vs KO ratio, anti-mFc-647 [13]: 9.8

B4: 75110_14I16A (antibody, V domains shown)
VH: B3 VH with G26N, N31S, F33Y, P40S, S53T, N56S, S70L
VL: DIQMTQSPSSLSASVGDRVTITCQASHDISNYLNWYQQKPGKAPKLLLYYASNLETGVPSRFSGSGSGTDFTFTITSLQPEDIGTYSCQQYDNLPLTFGGGTKVEIK
notes: Tested as non-clonal AlivaMab Mouse Kappa hybridoma supernatant (detected with anti-mouse Fc gamma and anti-human kappa); also called 75110_14116A
gMFI on SKW3 WT, anti-hu Kappa FITC [10]: 3550 gMFI
gMFI on SKW3 WT, anti-mFc 647 [11]: 6820 gMFI
PBMCs CD4+ gate RL1 binding, anti-mFc 647 [12]: 196000
PBMCs CD4+ percent bound of viable [12]: 23%
SKW3 WT vs KO ratio, anti-hKappa-FITC [13]: 1.4
SKW3 WT vs KO ratio, anti-mFc-647 [13]: 2.1

B7: CD8B251 (antibody, human IgG1, kappa, V domains shown)
VH: QVQLKGSGPGLVQPSQSLSITCTVSGFSLTTYAVHWVRQSPGKGLEWLGVIWSGGSTDYNAAFISRLSISKDNSKSQVFFKMNSLQADDTAIYYCARHSYYHYNAMDNWGQGTSVTVSS
VL: DIKMTQSQKFMSTTVGDRVSITCKASQNVGTAVAWYQQKPGQSPKLLIYSASNRYTGVPDRFTGSGSGTDFTLTISNMQSEDLADYFCQQYSSYPFTFGSGTKLEIKR
notes: Full-length human IgG1, kappa; V regions recovered from mouse hybridoma
Cell Binding to Human PanT Signal/Background (of CD4 negative population) [14]: 37

B10: CD8B310 (antibody, human IgG1, kappa, V domains shown)
VH: QVQLKESGPGLVAPSQSLSITCTVSGFSLTNYAVHWVRQSPGKGLEWLGVIWTDGSTDYNAGFISRLSISKDNSKSQVFFKMNSLQADDTAIYYCARNNGYFPAFFAYWGQGTTVTVSS
VL: DVLMTQTPLSLPVSLGDQASISCRSSQTIVHSNGNTYLEWYLQKPGQSPKLLMYKVSNRFSGVPDRFGGSGSGTDFTLKISRVEAEDLGVYYCFQGSHAPFTFGSGTKLEIKR
notes: as for B7
Cell Binding to Human PanT Signal/Background (of CD4 negative population) [14]: 29

B11: CD8B356 (antibody, human IgG1, kappa, V domains shown)
VH: DVQLQESGPGLVKPSQSLSLTCSVTGYSITSGYYWNWIRQFPGNKLEWMGYISYDGSNNYNPSLKNRISITRDTSKNQFFLKLNSVTTEDTATYYCVRNHGDAMDYWGQGTSVTVSS
VL: DIVLTQSQKFMSTTVGDRVSITCKASQNVGTAVAWYQQKPGQSPKLLIYSASYRYTGVPDRFTGSGSGTHFTLTISNMQSEDLADYFCQQYSSYLTFGSGTKLEIKR
notes: as for B7
Cell Binding to Human PanT Signal/Background (of CD4 negative population) [14]: 777

B13: CD8B269 (antibody, human IgG1, kappa, V domains shown)
VH: B11 VH with Y106H, S112T, V113L
VL: DIVMTQSQKFMSTSVGDRVRVTCKASQNVGTDVAWYQQKPGQSPKALIYSASYRYSGVPDRFTGSGSGTDFTLTISDVQSEDLAEYFCQQYKSYPLTFGAGTKLELKR
notes: as for B7
Cell Binding to Human PanT Signal/Background (of CD4 negative population) [14]: 26

Continued, in another order:

SKW3 FACS Binning OKT4a anti-hu A647 Secondary [1]: 5800
SKW3 FACS Binning OKT4 A488 [3]: 9980
PBMCs, anti-mFc 647 CD4+ gate - RL1 Binding [4]: 216000
Ibalizumab ELISA binning signal (huCD4-HIS): 1.27e+06
SKW3 FACS Binning RPA-T4-PE-Dazzle 594 [5]: 21300
SKW3 WT vs KO anti-hKappa-FITC [6]: 2.5 fold
SKW3 WT anti-hu Kappa FITC, gMFI [7]: 8670 gMFI
SKW3 WT anti-mFc 647, gMFI [8]: 41300 gMFI
SKW3 WT vs KO anti-mFc-647 [9]: 4 fold
B1: 75110_06D16A (antibody, V domains shown)
VH: B2 VH with S40P, Q53H, D72V, D76N, I99L, S104P, S109T
VL: B2 VL with G28D, S30A, S31D, D50A, T80P, D81E, Y87F
notes: Tested as non-clonal AlivaMab Mouse Kappa hybridoma supernatant: human variable domains and human kappa, mouse Fc (detected with anti-mouse Fc)
PBMCs, anti-mFc 647 CD4+ Percent Bound of Viable [2]: 29%

gMFI on SKW3 WT, anti-hu Kappa FITC [10]: 7790 gMFI
gMFI on SKW3 WT, anti-mFc 647 [11]: 30700 gMFI
PBMCs CD4+ gate RL1 binding, anti-mFc 647 [12]: 319000
SKW3 WT vs KO ratio, anti-hKappa-FITC [13]: 2.7
SKW3 WT vs KO ratio, anti-mFc-647 [13]: 8.8
B5: 75110_08M20A (antibody, V domains shown)
VH: B3 VH with G8D, N31S, F33Y, S53A, N56S, D101G
VL: B3 VL with N31K, K45N, G50A, I53N, T63S, T85A
notes: as for B3
PBMCs CD4+ percent bound of viable [12]: 30%

Cell Binding to Human PanT Signal/Background (of CD4 negative population) [14]: 1200
B6: CD8B347 (antibody, human IgG1, kappa)
heavy: not shown
light: DIQMTQSPASLSASVGETVTITCRASGNIHNYLAWYQQKQGKSPQLLVFNAETLADGVPSRFSGSGSGTQFSLKINSLQPEDFGTYYCQHFWNNPLTLGAGTKLELKRTVAAPSVFIFPPSDEQLKSGTASVVCLLNNFYPREAKVQWKVDNALQSGNSQESVTEQDSKDSTYSLSSTLTLSKADYEKHKVYACEVTHQGLSSPVTKSFNRGEC
notes: as for B7

Cell Binding to Human PanT Signal/Background (of CD4 negative population) [14]: 537
B8: CD8B350 (antibody, human IgG1, kappa, V domains shown)
VH: EVQLQQSGAELAKPGTSVKMSCKASGYTFAAYWINWLKQRPGQGLEWIGSINPSNGYTEYSQKFKDKAILTADKSSSTAYMQLSSLTSEDSAVYYCSRSGLYYTNHLAWCPYWGQGTTVTVSS
VL: DIVMTQSPASLSASVGETVTITCRASGNIHNYLAWYQQKQGKSPQVLVYNAETLADSVPSRFSGSGSGTQFSLKINSLQPEDFGNYYCQHFWNSPLTFGGGTKLEIKR
notes: as for B7

Cell Binding to Human PanT Signal/Background (of CD4 negative population) [14]: 1490
B9: CD8B182 (antibody, human IgG1, kappa, V domains shown)
VH: EVQLQQSGAALAKPGTSVKMSCKASGYTFTSYWMNWVRQRPGQGLEWIGAVNPTNYYTEYIQKFKDKAILTADKSSSTAYMHLSGLTSEDSAVYYCARSGLYNTNHLAWFAYWGQGTTVTVSS
VL: DIKMTQSPASLSASVGETVTITCRASENIHNYLAWYQQIQGKSPQLLVYNAKTLANGVPSRFSGSASGTQFSLTINSLQPEDFGSYYCQHFWTTPLTFGAGTKLELKR
notes: as for B7

Cell Binding to Human PanT Signal/Background (of CD4 negative population) [14]: 16
B12: CD8B319 (antibody, human IgG1, kappa, V domains shown)
VH: QVQLKESGPELKKPGETVKISCKASGYSFTAYYMHWVKQSPEKSLEWIGEINPSAGGTTYNQKFKAKATLTVDKSSSTAFIQLKSLTSEDSAVYYCARWTNPFDYWGQGTTLTVSS
VL: B11 VL with L4M, M78I, S92N, S93N
notes: as for B7
